Positions count from the first letter of the chain named. In names and notes the source's numbering stands.
B1: CODANIN-1 F581E/E652A (LOBE2 dimer interface mutant) (natural protein)
chain: MAAVLESLLREEVSVAAVVRWIARSTQGSEDNAGEAAALSSLRALRKEFVPFLLNFLREQSSRVLPQGPPTPAKTPGASAALPGRPGGPPRGSRGARSQLFPPTEAQSTAAEAPLARRGGRRRGPGPARERGGRGLEEGVSGESLPGAGGRRLRGSGSPSRPSLTLSDPPNLSNLEEFPPVGSVPPGPTGTKPSRRINPTPVSEERSLSKPKTCFTSPPISCVPSSQPSALDTSPWGLGLPPGCRSLQEEREMLRKERSKQLQQSPTPTCPTPELGSPLPSRTGSLTDEPADPARVSSRQRLELVALVYSSCIAENLVPNLFLELFFVFQLLTARRMVTAKDSDPELSPAVLDSLESPLFQSIHDCVFFAVQVLECHFQVLSNLDKGTLKLLAENERLLCFSPALQGRLRAAYEGSVAKVSLVMPPSTQAVSFQPETDNRANFSSDRAFHTFKKQRDVFYEVLREWEDHHEEPGWDFEKGLGSRIRAMMGQLSAACSHSHFVRLFQKQLLQMCQSPGGAGGTVLGEAPDVLSMLGADKLGRLWRLQERLMAPQSSGGPCPPPTFPGCQGFFRDFILSASSEQFNQHLMDSLSLKIQELNGLALPQHEPNDEDGESDVDWQGERKQFAVVLLSLRLLAKFLGFVAFLPYRGPAPPPTGELQDSILALRSQVPPVLDVRTLLQRGLQARRAVLTVPWLVEFLSFADHVVPLLEYYRDIFTLLLRLHRSLVLSQESEGKMCFLNKLLLLAVLGWLFQIPTVPEDLFFLEEGPSYAFEVDTVAPEHGLDNAPVVDQQLLYTCCPYIGELRKLLASWVSGSSGRSGGFMRKITPTTTTSLGAQPSQTSQGLQAQLAQAFFHNQPPSLRRTVEFVAERIGSNCVKHIKATLVADLVRQAESLLQEQLVTQGEEGGDPAQLLEILCSQLCPHGAQALALGREFCQRKSPGAVRALLPEETPAAVLSSAENIAVGLATEKACAWLSANITALIRREVKAAVSRTLRAQGPEPAARGERRGCSRACEHHAPLPSHLISEIKDVLSLAVGPRDPDEGVSPEHLEQLLGQLGQTLRCRQFLCPPAEQHLAKCSVELASLLVADQIPILGPPAQYRLERGQARRLLHMLLSLWKEDFQGPVPLQLLLSPRNVGLLADTRPREWDLLLFLLRELVEKGLMGRMEIEACLGSLHQAQWPGDFAEELATLSNLFLAEPHLPEPQLRACELVQPNRGTVLAQS
B2: CODANIN-1 P672L (CDA-I disease mutation) (natural protein)
chain: B1 chain with E581F, A652E, P672L
B3: CODANIN-1 F868I/E871R (C-terminal coiled-coil mutant) (natural protein)
chain: B1 chain with E581F, A652E, F868I, E871R

Target: the molecule itself
Experiment: SEC

| Protein | stoichiometry N | binding result |
| --- | --- | --- |
| B1 | 2 | – |
| B2 | 2 | – |
| B3 | – | binds |

From PMC11880193 (Nature Communications, 2025)
